In patent publication US20100035361A1 (published 2010):
Changes are numbered by the printed parent chain. Non-standard residues stand in square brackets, D forms with d. No end group written: not given here. Aib = CC(C)(N)C(=O)O

B1: anti-Her2 two helix binder (SEQ ID NO. 23) (designed binder)
chain: VENKCNKEMRNAYWEIALLPNLNNQQKRAFIRSLYDDPX
modifications: C^1 = hindered cysteine (penicillamine) at 39, disulfide linkage to natural Cys 5
B2: anti-Her2 two helix binder (SEQ ID NO. 20) (designed binder)
chain: B1 chain with C5X, X39C
modifications: C^2 = extended cysteine (homocysteine) at 5, disulfide linkage to natural Cys 39
B3: anti-Her2 two helix binder (SEQ ID NO. 19) (designed binder)
chain: B1 chain with C5X, X39C
modifications: C^1 = hindered cysteine (penicillamine) at 5, disulfide linkage to natural Cys 39
B4: anti-Her2 two helix binder (SEQ ID NO. 12), peptide with a covalent bridge between two E^1 residues (designed binder)
chain: B1 chain with E8X, E15X, X39C
modifications: E^1 = O-allyl glutamic acid at 8 and 15 joined by a covalent bridge (ring closing metathesis)
notes: Cys at 5 and 39

Experiments:
[1] = target: T1, extracellular domain of the Her2/neu antigen as a conjugate with the Fc region of human IgG (Fc-Her2), R&D … (human, UniProt P04626 23-652); assay: binding analysis (method not given; SPR per Example 2)
T1 construct: extracellular domain; Bought reagent; not shown: Fc region of human IgG

[2] = target: T1, extracellular domain of the Her2/neu …; assay: SPR (Biacore) relative binding, about 5 ug/ml peptide
Experimental: Binding interactions between the binder and the Her2/neu antigen was measured in vitro using surface plasmon resonance (SPR) detection on a BIAcore™ 3000 instrument (Piscataway, N.J.). The extracellular domain of the Her2/neu antigen was obtained as a conjugate with the Fc region of human IgG (Fc-Her2) from R&D Systems and covalently attached to a CM-5 dextran-functionalized sensor chip (BIAcore™) pre-equilibrated with HBS-EP buffer (0.01M HEPES pH 7.4, 0.15M NaCl, 3 mM EDTA, 0.005% v/v surfactant P20) at 10 μL/min and subsequently activated with 1-ethyl-3-[3-dimethylaminopropyl]carbodiimide hydrochloride (EDC) and N-hydroxysuccinimide (NHS). The Fc-Her2 (5 μg/ml) in 10 mM sodium acetate (pH 5.5) was injected onto the activated sensor chip until the desired immobilization level was achieved (2 min). Residual activated groups on the sensor chip were blocked by injection of ethanolamine (1 M, pH 8.5). Any non-covalently bound conjugate was removed by repeated (n=5) washing with 2.5 M NaCl₂, 50 mM NaOH.
A second flow cell on the same sensor chip was treated identically, except with no Fc-Her2 immobilization, to serve as a control surface for refractive index changes and non-specific binding interactions with the sensor chip. Prior to the kinetic study, binding of the target analyte was tested on both surfaces and a surface stability experiment was performed to ensure adequate removal of the bound analyte and regeneration of the sensor chip following treatment with 2.5 M NaCl, 50 mM NaOH. SPR sensorgrams were analyzed using the BiaEval (BIAcore) software. The robustness of the kinetic model was determined by evaluation of the residuals and standard error for each of the calculated kinetic parameters, the “goodness of the fit” (χ2<10), and a direct comparison of the modeled sensorgrams to the experimental data.

Row | Binder | binding result [1] | binding result [2]
1 | VENKCNK[Aib]MRN[Aib]YWE[Aib]ALLPNLNNQ[Aib]KRA[Aib]IRS[Aib]YDDPC-NH2 (designed binder, cysteine pairing not given here, Cys at 5 and 39) [anti-Her2 two helix binder (SEQ ID NO. 26)] | no binding | –
2 | VENKCNK[Aib]MRN[Aib]YWE[Aib]ALLPNLNNQQKRAFIRSLYDDPC-NH2 (designed binder, cysteine pairing not given here, Cys at 5 and 39) [anti-Her2 two helix binder (SEQ ID NO. 24)] | no binding | –
3 | VENKCNKEMRNAYWEIALLPNLNNQ[Aib]KRA[Aib]IRS[Aib]YDDPC-NH2 (designed binder, cysteine pairing not given here, Cys at 5 and 39) [anti-Her2 two helix binder (SEQ ID NO. 25)] | no binding | –
4 | B1 | – | binds
5 | B2 | – | binds
6 | VENKCNKEMRNAYWEIALLPNLNNQQKRXFIRSLYDDPC (designed binder, X = alpha amino isobutyric acid (Aib) at 29, Cys at 5 and 39) [anti-Her2 two helix binder (SEQ ID NO. 27), peptide with Ala29Aib] | – | binds
7 | B3 | – | binds
8 | B4 | – | binds
